Experimental data: PMC11357992, “Non-invasive mapping of systemic neutrophil dynamics upon cardiovascular injury” (Nature Cardiovascular Research, 2023)
“And” between values parts separate entries of the source, which are not always exact repeats. Equal values may be shown once. Where no end group is shown, it is not given here.

Test: Liver serum markers after PFC injection
Assay type: in vivo, mouse
Parameters: serum level of ALP (alkaline phosphatase) / serum level of ALT (alanine aminotransferase) / serum level of GLDH (glutamate dehydrogenase) / serum level of AST (aspartate aminotransferase): unit not given here
Conditions: 1 mM per kg BW i.v. over 3 consecutive days, blood 24 h after last injection; individual mice
Procedure: ^ConPFCs, ^mNPPFCs (each at 1 mM per kg BW) or saline were injected i.v. over 3 consecutive days. Twenty-four hours after the last injection, mice were killed, and blood samples were withdrawn to determine GLDH, AST, ALP, ALT and bilirubin levels by standard clinical procedures. Furthermore, the liver and spleen were dissected, fixed in formalin and snap frozen. Subsequently, 4-µm cryosections were cut and stained with hematoxylin and eosin as described previously.
Extended Data Fig. 3 Assessment of ^mNPPFC/^ConPFC biodistribution, liver serum markers and histology of liver and spleen. a, Biodistribution of intravenously injected ^mNPPFCs was determined via ^19F MRI measurements at distinct time points after injection (1, 3, 6 and 24 h after injection). Shown are quantification of fluorine signal intensities in the blood, liver and spleen indicating a fast wash-out from the blood accompanied by a strong influx into the liver while signal intensities in the spleen were constant over the entire observation period; a.u. = arbitrary units. b, Serum levels of GLDH (glutamate dehydrogenase), AST (aspartate aminotransferase), ALP (alkaline phosphatase), ALT (alanine aminotransferase) and bilirubin after intravenous application of NaCl as control, ^ConPFCs or ^mNPPFCs. c + d, 4 µm sections of liver (C) and spleen (D) stained with hematoxylin and eosin. Organs were excised and processed for histology 24 h post injection of NaCl (upper row), ^ConPFCs (middle), ^mNPPFCs (lower). Representative liver/spleen images of organs from three different animals are shown. Scale bars indicate 100 µm. Data are mean values ± SD of n = 6 (a), n = 4-6 (b) and n = 6 (c + d) independent experiments. Source data

Row | Substance | serum level of ALP (alkaline phosphatase) | serum level of ALT (alanine aminotransferase) | serum level of AST (aspartate aminotransferase) | serum level of GLDH (glutamate dehydrogenase)
1 | DFYKPMPNLRITGGGC [mNP] | 4.3 and 4.6 and 15.5 and 19.1 and 10.5 and 11.8 | 0.1 and 1 and 0.8 | 1.5 and 6.8 and 1.6 and 1.4 and 2.5 and 2.3 | 0.89 and 1.11 and 3.48 and 0.9 and 0.22 and 0.33
2 | SLAMFLTHSPEP-GGG-C [Con, reference compound] | 5.7 and 16.2 and 33.5 and 13.2 and 6.6 and 3.4 | 1.6 and 0.9 and 0.6 and 0.8 and 1.3 | 0.4 and 2 and 3.4 and 0.6 and 3.1 and 2.6 | 1.19 and 1.21 and 2.18 and 0.14
